PMC11789342, “5-Aminolevulinic acid activates the MdWRKY71-MdMADS1 module to enhance anthocyanin biosynthesis in apple”

B1: ProMdMADS1 W-box2 mutant probe (dsDNA)
DNA 1: ATTTACTATTTTTAGCATTACAATTT
DNA 2: AAATTGTAATGCTAAAAATAGTAAAT
B2: ProMdDFR W-box probe (dsDNA)
DNA 1: TGGGACTCTTCATTGACTCTCCGCCACATC
DNA 2: GATGTGGCGGAGAGTCAATGAAGAGTCCCA
B3: ProMdMADS1 W-box3 mutant probe (dsDNA)
DNA 1: CCTGAGGTTATTAACGCCAAAAGAAAA
DNA 2: TTTTCTTTTGGCGTTAATAACCTCAGG
B4: ProMdMADS1 W-box1 mutant probe (dsDNA)
DNA 1: ACTTTGTGGCTTTAGCATTTTGAAGA
DNA 2: TCTTCAAAATGCTAAAGCCACAAAGT
B5: ProMdANS W-box probe (dsDNA)
DNA 1: ATCCCAGATGTGTTGACTGTTCATGCTCAG
DNA 2: CTGAGCATGAACAGTCAACACATCTGGGAT

These binders were tested against MdWRKY71 (Malus x domestica, UniProt A0A7S5AU16 1-327) (assay: EMSA; LightShift Chemiluminescent EMSA Kit per manufacturer; buffer, salt, pH and temperature not stated). Conditions: protein: recombinant; tags: His (pET32a); label: biotin.
Chain of MdWRKY71 (A0A7S5AU16 entry or part of it): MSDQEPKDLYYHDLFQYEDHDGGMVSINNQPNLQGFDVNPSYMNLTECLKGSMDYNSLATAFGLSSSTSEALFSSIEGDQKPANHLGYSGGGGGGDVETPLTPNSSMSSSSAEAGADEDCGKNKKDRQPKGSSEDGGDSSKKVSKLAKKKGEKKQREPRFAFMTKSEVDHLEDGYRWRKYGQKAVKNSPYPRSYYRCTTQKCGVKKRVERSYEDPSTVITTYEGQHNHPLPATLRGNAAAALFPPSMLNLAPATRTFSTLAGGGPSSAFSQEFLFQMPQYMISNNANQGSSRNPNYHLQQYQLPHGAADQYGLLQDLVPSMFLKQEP

Binder	binding result
B1	no binding
B2	binds
B3	no binding
B4	no binding
B5	binds
